Residue numbers refer to the chain shown, from its start.
B1: 107_A01 scFv (6xHis/tri-Flag tags) (scFv)
scFv: QMQLVQSGAEVKKPGAPVKVSCKVSGYTFTDYYMHWVQQAPGKGLEWMGLVDPEDGETIYAEKFQGRVTITADTSTDTAYMELSSLRSEDTAVYYCATDATTPYWGMVSWGQGTLVTVSSLEGGGGSGGGGSGGGASDIQMTQSPSSLSASVGDRVTITCQASQDISNYLNWYQQKPGRAPKVLIYDASNLETGVPSRFSGSGSGTEFTLTISNLRPDDFATYYCQQGDSFPLTFGGGTKVEIK
notes: 7A2 derivative, only VH CDR3 changed; not shown: 6xHis/tri-FLAG tags of pSANG10-3F
B2: 107_A07 scFv (6xHis/tri-Flag tags) (scFv)
scFv: B1 scFv with V108M, S109W
notes: as for B1
B3: 107_A08 scFv (6xHis/tri-Flag tags) (scFv)
scFv: B1 scFv with S109E
notes: as for B1
B4: 110_A01 scFv (6xHis/tri-Flag tags) (scFv)
scFv: B1 scFv with G106F, M107P, V108Y, S109L
notes: 7A2 derivative, only VH CDR3 changed; also called 110_A1; not shown: 6xHis/tri-FLAG tags of pSANG10-3F
B5: 110_A06 scFv (6xHis/tri-Flag tags) (scFv)
scFv: B1 scFv with V108Q, S109L
notes: 7A2 derivative, only VH CDR3 changed; also called 110_A6; not shown: 6xHis/tri-FLAG tags of pSANG10-3F
B6: 110_B8 (scFv)
scFv: B1 scFv with V108M, S109L
notes: not shown: 6xHis/tri-FLAG tags
B7: 110_B9 (scFv)
scFv: B1 scFv with G106S, M107P, V108I, S109W
notes: as for B6
B8: 111_B12 (scFv)
scFv: B1 scFv with M107A, V108Q, S109A
notes: as for B6
B9: 111_C1 (scFv)
scFv: B1 scFv with G106S, M107P, V108W, S109A
notes: as for B6
B10: 111_C3 (scFv)
scFv: B1 scFv with V108Q, S109G
notes: as for B6
B11: 111_C5 (scFv)
scFv: B1 scFv with G106F, M107P, V108K, S109V
notes: as for B6
B12: 111_C6 (scFv)
scFv: B1 scFv with G106F, M107P, V108Q, S109H
notes: as for B6
B13: 111_C8 (scFv)
scFv: B1 scFv with G106F, M107P, S109V
notes: as for B6
B14: 111_C9 (scFv)
scFv: B1 scFv with V108M, S109A
notes: as for B6
B15: 111_C10 (scFv)
scFv: B1 scFv with G106T, M107P, V108E, S109I
notes: as for B6
B16: 111_C12 (scFv)
scFv: B1 scFv with G106F, M107P, V108R, S109Y
notes: as for B6
B17: 111_D1 (scFv)
scFv: B1 scFv with V108D, S109E
notes: as for B6
B18: 111_D2 (scFv)
scFv: B1 scFv with G106F, M107P, V108W, S109I
notes: as for B6
B19: 111_D3 (scFv)
scFv: B1 scFv with M107A, V108A, S109L
notes: as for B6
B20: 111_D4 (scFv)
scFv: B1 scFv with V108W, S109V
notes: as for B6
B21: 111_D5 (scFv)
scFv: B1 scFv with G106F, M107P, V108A, S109V
notes: as for B6
B22: 111_D7 (scFv)
scFv: B1 scFv with G106F, M107P, V108Y, S109A
notes: as for B6
B23: 111_D8 (scFv)
scFv: B1 scFv with V108S, S109W
notes: as for B6
B24: 111_D11 (scFv)
scFv: B1 scFv with V108M, S109R
notes: as for B6
B25: 111_E3 (scFv)
scFv: B1 scFv with G106F, M107P, S109E
notes: as for B6
B26: 111_E4 (scFv)
scFv: B1 scFv with M107I, V108E, S109V
notes: as for B6
B27: 111_E5 (scFv)
scFv: B1 scFv with V108C, S109E
notes: as for B6
B28: 111_E6 (scFv)
scFv: B1 scFv with V108A, S109V
notes: as for B6
B29: 111_E7 (scFv)
scFv: B1 scFv with V108M, S109M
notes: as for B6
B30: 111_E8 (scFv)
scFv: B1 scFv with G106F, M107P, V108Y, S109R
notes: as for B6
B31: 111_E10 (scFv)
scFv: B1 scFv with G106Y, M107P, V108Y, S109A
notes: as for B6
B32: 111_E11 (scFv)
scFv: B1 scFv with V108R, S109E
notes: as for B6
B33: 111_E12 (scFv)
scFv: B1 scFv with G106S, M107P, V108W, S109V
notes: as for B6
B34: 112_F1 (scFv)
scFv: B1 scFv with V108A, S109R
notes: as for B6
B35: 112_F4 (scFv)
scFv: B1 scFv with V108A, S109D
notes: as for B6
B36: 112_F8 (scFv)
scFv: B1 scFv with G106T, M107P, V108F, S109L
notes: as for B6
B37: 112_F11 (scFv)
scFv: B1 scFv with V108M, S109Q
notes: as for B6
B38: 112_F12 (scFv)
scFv: B1 scFv with V108Q, S109W
notes: as for B6
B39: 112_G3 (scFv)
scFv: B1 scFv with V108S, S109A
notes: as for B6
B40: 112_G4 (scFv)
scFv: B1 scFv with M107A, V108Q
notes: as for B6
B41: 112_G5 (scFv)
scFv: B1 scFv with V108R
notes: as for B6
B42: 112_G6 (scFv)
scFv: B1 scFv with G106F, M107P, V108F, S109V
notes: as for B6
B43: 112_G7 (scFv)
scFv: B1 scFv with G106F, M107P, V108Q, S109T
notes: as for B6
B44: 112_G9 (scFv)
scFv: B1 scFv with V108Q, S109R
notes: as for B6
B45: 112_G11 (scFv)
scFv: B1 scFv with G106F, M107P, V108Y, S109T
notes: as for B6
B46: 112_H1 (scFv)
scFv: B1 scFv with M107A, V108A, S109V
notes: as for B6
B47: 112_H4 (scFv)
scFv: B1 scFv with V108W, S109K
notes: as for B6
B48: 112_H5 (scFv)
scFv: B1 scFv with V108Q, S109A
notes: as for B6
B49: 112_H6 (scFv)
scFv: B1 scFv with V108M, S109E
notes: as for B6
B50: 112_H7 (scFv)
scFv: B1 scFv with M107V, V108Q
notes: as for B6
B51: 112_H8 (scFv)
scFv: B1 scFv with G106L, M107P, V108L, S109Y
notes: as for B6
B52: 112_H9 (scFv)
scFv: B1 scFv with G106F, M107P, V108Y
notes: as for B6
B53: 112_H10 (scFv)
scFv: B1 scFv with M107I, V108R, S109K
notes: as for B6
B54: 112_H11 (scFv)
scFv: B1 scFv with G106F, M107P, V108Q, S109V
notes: as for B6
B55: 112_H12 (scFv)
scFv: B1 scFv with G106F, M107P, V108Y, S109K
notes: as for B6

Legend:
[1] = molecular target: T1, MET928 (cMET protein derived from construct 25-928) (human, UniProt P08581 25-928); assay: Biacore SPR, MET-928 on chip, scFv format
T1 construct: MET ectodomain, residues 1-24 are the leader; produced in Lec 8 cells; background text says the ectodomain is furin-cleaved into alpha (25-307) and beta chains; biotinylated form used in selections; also called MET928 extracellular domain; Met extracellular domain
T1 sequence (P08581 25-928): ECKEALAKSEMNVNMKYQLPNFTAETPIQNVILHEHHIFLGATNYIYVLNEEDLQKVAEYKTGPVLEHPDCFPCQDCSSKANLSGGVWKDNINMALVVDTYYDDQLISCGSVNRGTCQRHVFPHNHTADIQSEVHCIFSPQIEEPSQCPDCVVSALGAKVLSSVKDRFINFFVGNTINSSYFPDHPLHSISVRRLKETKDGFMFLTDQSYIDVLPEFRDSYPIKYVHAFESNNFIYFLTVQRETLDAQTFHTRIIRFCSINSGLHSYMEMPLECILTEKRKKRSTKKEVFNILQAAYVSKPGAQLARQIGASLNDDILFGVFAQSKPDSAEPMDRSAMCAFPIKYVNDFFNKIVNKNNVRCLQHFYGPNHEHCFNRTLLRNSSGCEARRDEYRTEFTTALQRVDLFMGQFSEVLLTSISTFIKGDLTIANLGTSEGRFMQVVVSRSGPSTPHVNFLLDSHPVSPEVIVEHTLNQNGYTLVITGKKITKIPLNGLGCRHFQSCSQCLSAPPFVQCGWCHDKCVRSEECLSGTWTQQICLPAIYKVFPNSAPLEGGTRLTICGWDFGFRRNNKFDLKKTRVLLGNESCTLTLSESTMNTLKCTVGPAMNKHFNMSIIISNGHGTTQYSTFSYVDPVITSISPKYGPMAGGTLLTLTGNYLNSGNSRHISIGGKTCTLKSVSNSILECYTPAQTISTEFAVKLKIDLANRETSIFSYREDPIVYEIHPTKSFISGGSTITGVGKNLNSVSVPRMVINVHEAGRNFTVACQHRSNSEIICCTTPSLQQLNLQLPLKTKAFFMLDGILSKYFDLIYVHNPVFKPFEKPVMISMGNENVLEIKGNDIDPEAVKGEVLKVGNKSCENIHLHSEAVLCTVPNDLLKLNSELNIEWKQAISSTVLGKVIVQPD
Method: The binding characteristics of 7A2 and its derivatives were measured using a GE Healthcare Biacore biosensor.

[2] = molecular target: T1, MET928 (cMET protein derived from …); assay: ELISA, soluble scFv

Binder	binding result [2]	further results
B1		Kd [1]: 0.0652 nM; koff [1]: 0.00321 s⁻¹; kon [1]: 4.92e+07 M⁻¹ s⁻¹
B2		Kd [1]: 0.346 nM; koff [1]: 0.00115 s⁻¹; kon [1]: 3.31e+06 M⁻¹ s⁻¹
B3		Kd [1]: 0.274 nM; koff [1]: 0.00691 s⁻¹; kon [1]: 2.52e+07 M⁻¹ s⁻¹
B4		Kd [1]: 0.322 nM; koff [1]: 0.00163 s⁻¹; kon [1]: 5.05e+06 M⁻¹ s⁻¹
B5		Kd [1]: 0.121 nM; koff [1]: 0.00417 s⁻¹; kon [1]: 3.45e+07 M⁻¹ s⁻¹
B6	binds	
B7	binds	
B8	binds	
B9	binds	
B10	binds	
B11	binds	
B12	binds	
B13	binds	
B14	binds	
B15	binds	
B16	binds	
B17	binds	
B18	binds	
B19	binds	
B20	binds	
B21	binds	
B22	binds	
B23	binds	
B24	binds	
B25	binds	
B26	binds	
B27	binds	
B28	binds	

Binder	binding result [2]	further results
B29	binds	
B30	binds	
B31	binds	
B32	binds	
B33	binds	
B34	binds	
B35	binds	
B36	binds	
B37	binds	
B38	binds	
B39	binds	
B40	binds	
B41	binds	
B42	binds	
B43	binds	
B44	binds	
B45	binds	
B46	binds	
B47	binds	
B48	binds	
B49	binds	
B50	binds	
B51	binds	
B52	binds	
B53	binds	
B54	binds	
B55	binds	

— patent US20150147274A1 (CANCER RESEARCH TECHNOLOGY, published 2015)
